Data as given in patent publication US20260193293A1, “PEPTIDES CAPABLE OF INHIBITING PROTEIN-PROTEIN INTERACTIONS AT GABAB1A SUBUNIT AND USES THEREOF” (UNIVERSITY OF COPENHAGEN, priority 2022, published 2026).
Non-standard residues stand in square brackets, D forms with d. NMeW = CN[C@@H](Cc1c[nH]c2ccccc12)C(=O)O; Cya = N[C@@H](CS(=O)(=O)O)C(=O)O; NMeE = CN[C@@H](CCC(=O)O)C(=O)O; NMeD = CN[C@@H](CC(=O)O)C(=O)O; NMeV = CN[C@H](C(=O)O)C(C)C; NMeS = CN[C@@H](CO)C(=O)O

Biological target: Sushi domains (SD1/2) protein of the GABAB1a (GB1a) subunit, recombinant
Test: FP competition

Chain of Sushi domains (SD1/2) protein of the GABAB1a (GB1a) subunit, recombinant (Q9Z0U4 29-158): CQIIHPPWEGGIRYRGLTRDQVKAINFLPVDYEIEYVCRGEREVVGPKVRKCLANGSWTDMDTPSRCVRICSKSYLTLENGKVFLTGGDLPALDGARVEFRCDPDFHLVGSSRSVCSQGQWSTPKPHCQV

| Binder | Ki [nM] | fold improved affinity relative to the wild type (AJAP-1WT) [fold] |
| --- | --- | --- |
| Ac-AIVWGPTVSREDG-NH2 | 5550 |  |
| Ac-PWAIVWGPTVSRE-NH2 | 650 |  |
| Ac-PWAIVWGPTVSR-NH2 | 433 |  |
| Ac-PWAIVWGPTVS-NH2 | 463 |  |
| Ac-PWAIVWGPTV-NH2 | 561 |  |
| Ac-PWAIVWGPT-NH2 | 716 |  |
| Ac-PWAIVWGP-NH2 | 597 |  |
| Ac-PWAIVWG-NH2 | 579 |  |
| Ac-PWAIVW-NH2 | 706 |  |
| Ac-ADDSDVWWGGADTD-NH2 | 803 |  |
| Ac-EADSDVWWGGADTD-NH2 | 1240 |  |
| Ac-EDASDVWWGGADTD-NH2 | 1830 |  |
| Ac-EDDADVWWGGADTD-NH2 | 660 |  |
| Ac-EDDSAVWWGGADTD-NH2 | 3080 |  |
| Ac-EDDSDVAWGGADTD-NH2 | 8790 |  |
| Ac-EDDSDVWWAGADTD-NH2 | 485 |  |
| Ac-EDDSDVWWGAADTD-NH2 | 731 |  |
| Ac-EDDSDVWWGGAATD-NH2 | 653 |  |
| Ac-ETEFI[Cya]WGPTGDED-NH2 (SMILES CC[C@H](C)[C@H](NC(=O)[C@H](Cc1ccccc1)NC(=O)[C@H](CCC(=O)O)NC(=O)[C@@H](NC(=O)[C@H](CCC(=O)O)NC(C)=O)[C@@H](C)O)C(=O)N[C@@H](CS(=O)(=O)O)C(=O)N[C@@H](Cc1c[nH]c2ccccc12)C(=O)NCC(=O)N1CCC[C@H]1C(=O)N[C@H](C(=O)NCC(=O)N[C@@H](CC(=O)O)C(=O)N[C@@H](CCC(=O)O)C(=O)N[C@@H](CC(=O)O)C(N)=O)[C@@H](C)O) [Ac-ETEFI(Cya)WGPTGDED-NH2 (AJAP-1WT mutant Ala182Cya)] | 11.8 |  |
| Ac-EDDSDVWWGGADAD-NH2 | 480 |  |

| Binder | Ki [nM] | fold improved affinity relative to the wild type (AJAP-1WT) [fold] |
| --- | --- | --- |
| Ac-EDDSDVWWGGADTA-NH2 | 786 |  |
| Ac-[dE]DDSDVWWGGADTD-NH2 (SMILES CC(=O)N[C@H](CCC(=O)O)C(=O)N[C@@H](CC(=O)O)C(=O)N[C@@H](CC(=O)O)C(=O)N[C@@H](CO)C(=O)N[C@@H](CC(=O)O)C(=O)N[C@H](C(=O)N[C@@H](Cc1c[nH]c2ccccc12)C(=O)N[C@@H](Cc1c[nH]c2ccccc12)C(=O)NCC(=O)NCC(=O)N[C@@H](C)C(=O)N[C@@H](CC(=O)O)C(=O)N[C@H](C(=O)N[C@@H](CC(=O)O)C(N)=O)[C@@H](C)O)C(C)C) [e…] | 483 |  |
| Ac-E[dD]DSDVWWGGADTD-NH2 [Ed…] | 567 |  |
| Ac-ED[dD]SDVWWGGADTD-NH2 [EDd…] | 736 |  |
| Ac-EDD[dS]DVWWGGADTD-NH2 [EDDs…] | 752 |  |
| Ac-EDDS[dD]VWWGGADTD-NH2 [EDDSd…] | 1630 |  |
| Ac-ETEFIDWGPTGDED-NH2 [peptide 26 (Ac-…-NH2, AJAP-1WT mutant A182D)] |  | 3 |
| Ac-EDDSDVWW[dA]GADTD-NH2 [EDDSDVWWaGADTD] | 8700 |  |
| Ac-EDDSDVWWG[dA]ADTD-NH2 […aADTD] | 1210 |  |
| Ac-EDDSDVWWGG[dA]DTD-NH2 […aDTD] | 755 |  |
| Ac-EDDSDVWWGGA[dD]TD-NH2 […dTD] | 637 |  |
| Ac-EDDSDVWWGGAD[dT]D-NH2 […tD] | 469 |  |
| Ac-EDDSDVWWGGADT[dD]-NH2 […d] | 529 |  |
| Ac-[NMeE]DDSDVWWGGADTD-NH2 (SMILES CC(=O)N(C)[C@@H](CCC(=O)O)C(=O)N[C@@H](CC(=O)O)C(=O)N[C@@H](CC(=O)O)C(=O)N[C@@H](CO)C(=O)N[C@@H](CC(=O)O)C(=O)N[C@H](C(=O)N[C@@H](Cc1c[nH]c2ccccc12)C(=O)N[C@@H](Cc1c[nH]c2ccccc12)C(=O)NCC(=O)NCC(=O)N[C@@H](C)C(=O)N[C@@H](CC(=O)O)C(=O)N[C@H](C(=O)N[C@@H](CC(=O)O)C(N)=O)[C@@H](C)O)C(C)C) [(N-Me-E)…] | 670 |  |
| Ac-E[NMeD]DSDVWWGGADTD-NH2 (SMILES CC(=O)N[C@@H](CCC(=O)O)C(=O)N(C)[C@@H](CC(=O)O)C(=O)N[C@@H](CC(=O)O)C(=O)N[C@@H](CO)C(=O)N[C@@H](CC(=O)O)C(=O)N[C@H](C(=O)N[C@@H](Cc1c[nH]c2ccccc12)C(=O)N[C@@H](Cc1c[nH]c2ccccc12)C(=O)NCC(=O)NCC(=O)N[C@@H](C)C(=O)N[C@@H](CC(=O)O)C(=O)N[C@H](C(=O)N[C@@H](CC(=O)O)C(N)=O)[C@@H](C)O)C(C)C) [E(N-Me-D)…] | 655 |  |
| Ac-ED[NMeD]SDVWWGGADTD-NH2 (SMILES CC(=O)N[C@@H](CCC(=O)O)C(=O)N[C@@H](CC(=O)O)C(=O)N(C)[C@@H](CC(=O)O)C(=O)N[C@@H](CO)C(=O)N[C@@H](CC(=O)O)C(=O)N[C@H](C(=O)N[C@@H](Cc1c[nH]c2ccccc12)C(=O)N[C@@H](Cc1c[nH]c2ccccc12)C(=O)NCC(=O)NCC(=O)N[C@@H](C)C(=O)N[C@@H](CC(=O)O)C(=O)N[C@H](C(=O)N[C@@H](CC(=O)O)C(N)=O)[C@@H](C)O)C(C)C) [ED(N-Me-D)…] | 671 |  |
| Ac-EDD[NMeS]DVWWGGADTD-NH2 (SMILES CC(=O)N[C@@H](CCC(=O)O)C(=O)N[C@@H](CC(=O)O)C(=O)N[C@@H](CC(=O)O)C(=O)N(C)[C@@H](CO)C(=O)N[C@@H](CC(=O)O)C(=O)N[C@H](C(=O)N[C@@H](Cc1c[nH]c2ccccc12)C(=O)N[C@@H](Cc1c[nH]c2ccccc12)C(=O)NCC(=O)NCC(=O)N[C@@H](C)C(=O)N[C@@H](CC(=O)O)C(=O)N[C@H](C(=O)N[C@@H](CC(=O)O)C(N)=O)[C@@H](C)O)C(C)C) [EDD(N-Me-S)…] | 1670 |  |
| Ac-EDDS[NMeD]VWWGGADTD-NH2 (SMILES CC(=O)N[C@@H](CCC(=O)O)C(=O)N[C@@H](CC(=O)O)C(=O)N[C@@H](CC(=O)O)C(=O)N[C@@H](CO)C(=O)N(C)[C@@H](CC(=O)O)C(=O)N[C@H](C(=O)N[C@@H](Cc1c[nH]c2ccccc12)C(=O)N[C@@H](Cc1c[nH]c2ccccc12)C(=O)NCC(=O)NCC(=O)N[C@@H](C)C(=O)N[C@@H](CC(=O)O)C(=O)N[C@H](C(=O)N[C@@H](CC(=O)O)C(N)=O)[C@@H](C)O)C(C)C) [EDDS(N-Me-D)…] | 3760 |  |
| Ac-EDDSD[NMeV]WWGGADTD-NH2 (SMILES CC(=O)N[C@@H](CCC(=O)O)C(=O)N[C@@H](CC(=O)O)C(=O)N[C@@H](CC(=O)O)C(=O)N[C@@H](CO)C(=O)N[C@@H](CC(=O)O)C(=O)N(C)[C@H](C(=O)N[C@@H](Cc1c[nH]c2ccccc12)C(=O)N[C@@H](Cc1c[nH]c2ccccc12)C(=O)NCC(=O)NCC(=O)N[C@@H](C)C(=O)N[C@@H](CC(=O)O)C(=O)N[C@H](C(=O)N[C@@H](CC(=O)O)C(N)=O)[C@@H](C)O)C(C)C) [EDDSD(N-Me-V)WWGGADTD] | 12300 |  |
| Ac-EDDSDV[NMeW]WGGADTD-NH2 (SMILES CC(=O)N[C@@H](CCC(=O)O)C(=O)N[C@@H](CC(=O)O)C(=O)N[C@@H](CC(=O)O)C(=O)N[C@@H](CO)C(=O)N[C@@H](CC(=O)O)C(=O)N[C@H](C(=O)N(C)[C@@H](Cc1c[nH]c2ccccc12)C(=O)N[C@@H](Cc1c[nH]c2ccccc12)C(=O)NCC(=O)NCC(=O)N[C@@H](C)C(=O)N[C@@H](CC(=O)O)C(=O)N[C@H](C(=O)N[C@@H](CC(=O)O)C(N)=O)[C@@H](C)O)C(C)C) [EDDSDV(N-Me-W)WGGADTD] | 85600 |  |
